Measurements as given in the supplement of paper PMC9233669.
Fewer inactive variants are shown than the library holds.

Columns and labels:
biotinyl-Leu-oxazolone = assay: self-aminoacylation, catalytic enhancement (BLO) (fold over background); higher = more active; k-Seq, kA / k0A0; sequences stand for … in GGGAAUGGAUCCACAUCUACGAAUUC…UUCACUGCAGACUUGACGAAGCUG
Method in brief: (§1)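 Mutagenized RNA pools with a 21-nt variable region (0.43 μM) reacted with each biotinyl-aminoacyl-oxazolone at 2–1250 μM. Reactions ran in 50 μL HEPES/NaCl/KCl/MgCl2/CaCl2 buffer with 5% acetonitrile, pH 6.9–7.0, for 90 minutes at room temperature. Streptavidin-captured RNA was quantified by triplicate qPCR and Illumina sequencing, and per-sequence fraction reacted was fit to a pseudo-first-order model with 1000 bootstraps. Catalytic enhancement is median kA divided by the uncatalyzed rate, the low-activity peak of a bimodal Gaussian fit.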

biotinyl-Ile-oxazolone = assay: self-aminoacylation, catalytic enhancement (BIO) (fold over background); higher = more active; k-Seq, kA / k0A0; sequences stand for … in GGGAAUGGAUCCACAUCUACGAAUUC…UUCACUGCAGACUUGACGAAGCUG
Method in brief: as §1

biotinyl-Val-oxazolone = assay: self-aminoacylation, catalytic enhancement (BVO) (fold over background); higher = more active; k-Seq, kA / k0A0; sequences stand for … in GGGAAUGGAUCCACAUCUACGAAUUC…UUCACUGCAGACUUGACGAAGCUG
Method in brief: as §1

biotinyl-Trp-oxazolone = assay: self-aminoacylation, catalytic enhancement (BWO) (fold over background); higher = more active; k-Seq, kA / k0A0; sequences stand for … in GGGAAUGGAUCCACAUCUACGAAUUC…UUCACUGCAGACUUGACGAAGCUG
Method in brief: as §1

biotinyl-Phe-oxazolone = assay: self-aminoacylation, catalytic enhancement (BFO) (fold over background); higher = more active; k-Seq, kA / k0A0; sequences stand for … in GGGAAUGGAUCCACAUCUACGAAUUC…UUCACUGCAGACUUGACGAAGCUG
Method in brief: as §1

biotinyl-Met-oxazolone = assay: self-aminoacylation, catalytic enhancement (BMO) (fold over background); higher = more active; k-Seq, kA / k0A0; sequences stand for … in GGGAAUGGAUCCACAUCUACGAAUUC…UUCACUGCAGACUUGACGAAGCUG
Method in brief: as §1

Sequence	self-aminoacylation (biotinyl-Leu-oxazolone)	self-aminoacylation (biotinyl-Ile-oxazolone)	self-aminoacylation (biotinyl-Val-oxazolone)	self-aminoacylation (biotinyl-Trp-oxazolone)	self-aminoacylation (biotinyl-Phe-oxazolone)	self-aminoacylation (biotinyl-Met-oxazolone)
CUACUUCAAUCACUCGGUCUG [Fam1A.1 aminoacylation ribozyme variant]	0.746	0.866	0.835	0.688	0.649	0.68
CCACACUUCCAGCAGUCGGUC [Fam1B.1 aminoacylation ribozyme variant]	1.11	1.24	1.29	0.613	0.659	1.14
CCACACUUCAAGUAGUCGGUC [Fam1B.1 aminoacylation ribozyme variant]	0.92	0.96	0.865	0.919	0.856	0.857
CAGUUUGCUAAUAAUCGCAAG [Fam3.1 aminoacylation ribozyme variant]	0.99	0.97	1.03	0.939	1.1	1
CCACACUUAAAGCAUUCGGUC [Fam1B.1 aminoacylation ribozyme variant]	1.29	1.63	1.58	1.15	1.03	1.17
CCACACUUCAAGCAGACGGUC [Fam1B.1 aminoacylation ribozyme variant]	0.605	0.686	0.57	0.539	0.719	0.607
CCACACUCCAAGCAAUCGCUC [Fam1B.1 aminoacylation ribozyme variant]	1.38	1.92	2.56	2.47	0.753	1.29
AAGUUUCCUAAUAGUCGCAAA [Fam3.1 aminoacylation ribozyme variant]	1.99	1.99	1.43	1.96	3.59	1.74
AUUCACCUACGUCAUGGGGUG [Fam2.2 aminoacylation ribozyme variant]	2.62	1.79	2.01	1.67	11	2.5
AAGCUUGCUAAGAGUCGCAAG [Fam3.1 aminoacylation ribozyme variant]	2.66	2.51	2.44	3.08	3.44	2.23
CCACACUAGAAGCAAUCGGUC [Fam1B.1 aminoacylation ribozyme variant]	0.954	0.809	0.961	0.873	0.713	0.747
CCACACUUCGAGCCAUCGGUC [Fam1B.1 aminoacylation ribozyme variant]	1.58	1.84	1.87	1.02	1.27	1.27
AAGUUUUCUACUAGUCGCAAG [Fam3.1 aminoacylation ribozyme variant]	1.79	1.99	1.51	1.86	3.09	1.67
AUUCCCCUGAUCAUCGAGUGA [Fam2.1 aminoacylation ribozyme variant]	5.83	3.81	4.2	7.4	8.85	6.39
CAACUUCAACCAAUCGGUCUG [Fam1A.1 aminoacylation ribozyme variant]	2.41	1.37	1.61	33.2	66.9	1.67
AUUACCCUGGUCAUGGUGUGA [Fam2.1 aminoacylation ribozyme variant]	1.84	1.27	1.18	2.24	4.16	1.64
UAGUAUGCUAAUAGUCGCAAG [Fam3.1 aminoacylation ribozyme variant]	1.57	1.62	1.13	1.68	2	1.28
AUUCACCUAGGUCAUCGGAGG [Fam2.2 aminoacylation ribozyme variant]	0.991	0.829	1.03	0.621	0.759	0.898
UUUACCCUGGUCAUCUAGUGA [Fam2.1 aminoacylation ribozyme variant]	8.63	4.72	4.43	10.9	46.3	8.71
CCACACUGCAAGAAAUCGGUC [Fam1B.1 aminoacylation ribozyme variant]	1.51	1.51	1.72	1.51	1.29	1.12
AUUCACCUACGUCAUCGUGUG [Fam2.2 aminoacylation ribozyme variant]	0.86	0.632	0.818	0.425	0.74	0.602
CUAGUUCAAACAAUCGGUCAG [Fam1A.1 aminoacylation ribozyme variant]	0.692	0.714	0.753	1.2	2.03	0.731
CCACACCUCAACCAAUCGGUC [Fam1B.1 aminoacylation ribozyme variant]	1.28	1.11	1.02	3.13	3.45	1.37
AUUACCGUGGUCAUCGAGUGG [Fam2.1 aminoacylation ribozyme variant]	1.81	1.27	1.33	1.72	7.04	1.85
CCACAGUUCAAGCAGUCGGUC [Fam1B.1 aminoacylation ribozyme variant]	1.04	0.937	1.2	0.757	0.63	1.01
AAGUUUGCUAAUAGUCGCAUU [Fam3.1 aminoacylation ribozyme variant]	1.27	1.37	1.22	1.29	1.63	1.25
